# According to the Human Domainome abundance scans (Beltran et al. 2025):
# ± gives the uncertainty stated by the source.
# B1: Lysine-specific demethylase 2B, residues 656 to 722; numbered along this chain, Q8NHM5 (parent)
# chain: LPHTAVCLVCGEAGKEDTVEEEEGKFNLMLMECSICNEIIHPGCLKIKESEGVVNDELPNCWECPKC
# Variants of: B1
# Test: abundance fitness (aPCA) (normalised: wild type 0, dead -1); higher = more abundant; growth selection in yeast, the domain comes from the species named
# Conditions: Homo sapiens
row,Variant,abundance fitness
1,P65A,-0.133 ± 0.077
2,P65R,-0.364 ± 0.079
3,P65W,-0.432 ± 0.1
4,P65Q,-0.454 ± 0.26
5,P65C,-0.384 ± 0.11
6,M29V,-0.318 ± 0.093
7,M29S,0.039 ± 0.077
8,M29H,-0.31 ± 0.27
9,M29A,-0.297 ± 0.14
10,M29C,-0.026 ± 0.14
11,E49P,0.024 ± 0.094
12,E49M,-0.005 ± 0.18
13,E49Y,-0.187 ± 0.2
14,A5G,-0.338 ± 0.17
15,A5E,-0.696 ± 0.29
16,A5Q,-0.095 ± 0.22
17,A5M,0.195 ± 0.088
18,A5S,-0.192 ± 0.15
19,D17N,-0.035 ± 0.31
20,D17H,0.099 ± 0.17
21,D17I,0.068 ± 0.22
22,D17P,-0.168 ± 0.15
23,D17S,-0.083 ± 0.081
24,D17W,-0.553 ± 0.12

row,Variant,abundance fitness
1,G24W,-0.526 ± 0.082
2,G24T,0.019 ± 0.099
3,G24I,-0.049 ± 0.13
4,G24L,0.045 ± 0.071
5,G24M,0.375 ± 0.1
6,K66L,-0.705 ± 0.18
7,K66A,-0.425 ± 0.18
8,K66G,-0.263 ± 0.12
9,L45M,0.032 ± 0.12
10,L45Q,0.069 ± 0.16
11,L45V,-0.092 ± 0.074
12,L45P,-0.515 ± 0.19
13,L45K,-0.402 ± 0.058
14,L45A,-0.224 ± 0.2
15,C36R,-0.72 ± 0.091
16,C36M,-0.619 ± 0.21
17,C36L,-0.643 ± 0.18
18,C36W,-1.38 ± 0.23
19,C36S,-0.994 ± 0.22
20,E23M,-0.088 ± 0.095
21,E23Q,-0.21 ± 0.33
22,E23G,0.13 ± 0.063
23,D56S,0.07 ± 0.077
24,D56G,0.079 ± 0.072

row,Variant,abundance fitness
1,D56F,0.023 ± 0.23
2,D56Q,-0.049 ± 0.094
3,N27P,-0.038 ± 0.1
4,N27C,-0.706 ± 0.36
5,N27G,-0.113 ± 0.058
6,N27D,-0.058 ± 0.27
7,N27F,-0.22 ± 0.19
8,E63Y,-0.263 ± 0.23
9,E63T,0.102 ± 0.075
10,E63A,0.017 ± 0.14
11,E63C,-0.073 ± 0.12
12,E63V,0.039 ± 0.079
13,L8I,0.099 ± 0.24
14,L8H,-0.281 ± 0.3
15,L8M,0.172 ± 0.29
16,C7A,-0.691 ± 0.28
17,C7D,-0.902 ± 0.34
18,V9K,0.088 ± 0.085
19,V9I,0.226 ± 0.081
20,V9F,-0.257 ± 0.24
21,V9P,-0.707 ± 0.14
22,V9T,0.127 ± 0.1
23,V9L,-0.126 ± 0.083
24,L58P,-0.408 ± 0.16

row,Variant,abundance fitness
1,L58S,0.051 ± 0.088
2,L58V,-0.036 ± 0.078
3,L58G,-0.171 ± 0.078
4,L58Q,-0.107 ± 0.16
5,L58H,0.194 ± 0.16
6,I47R,-0.207 ± 0.067
7,I47G,0.011 ± 0.087
8,I47Y,-0.007 ± 0.22
9,I47Q,-0.167 ± 0.18
10,I47F,-0.047 ± 0.19
11,I47H,-0.242 ± 0.28
12,F26R,-0.018 ± 0.097
13,F26T,-0.155 ± 0.14
14,F26V,-0.164 ± 0.072
15,F26A,-0.204 ± 0.084
16,N60R,-0.044 ± 0.08
17,N60S,-0.166 ± 0.072
18,N60E,-0.211 ± 0.098
19,N60M,-0.234 ± 0.1
20,N60I,-0.186 ± 0.11
21,G11A,-0.139 ± 0.13
22,G11T,-0.354 ± 0.11
23,G11W,-0.533 ± 0.12
24,G11F,-0.063 ± 0.14

row,Variant,abundance fitness
1,C33P,-0.729 ± 0.19
2,C33W,-1.02 ± 0.27
3,C33Q,-0.581 ± 0.21
4,C33M,-0.642 ± 0.14
5,C33N,-0.481 ± 0.29
6,I35P,-1.07 ± 0.3
7,I35C,-0.119 ± 0.21
8,I35T,0.147 ± 0.15
9,I35M,0.023 ± 0.13
10,I35G,-0.14 ± 0.11
11,I35E,-0.399 ± 0.22
12,V53H,-0.346 ± 0.2
13,V53L,-0.119 ± 0.081
14,V53S,0.006 ± 0.1
15,V53N,-0.136 ± 0.21
16,V53G,-0.078 ± 0.096
17,V53R,-0.148 ± 0.073
18,V53T,0.078 ± 0.11
19,V53M,-0.045 ± 0.11
20,V53I,-0.07 ± 0.13
21,K25Y,-0.677 ± 0.2
22,K25R,-0.324 ± 0.088
23,K25F,-0.602 ± 0.14
24,K25C,-0.329 ± 0.21

row,Variant,abundance fitness
1,K25G,-0.33 ± 0.099
2,E57T,-0.007 ± 0.13
3,E57Q,-0.118 ± 0.13
4,H41A,-0.931 ± 0.22
5,H41S,-1.03 ± 0.27
6,H41K,-0.278 ± 0.16
7,H41W,-0.913 ± 0.14
8,H41V,-1.21 ± 0.44
9,E51L,-0.385 ± 0.11
10,E51A,-0.044 ± 0.073
11,E51C,0.056 ± 0.16
12,E51R,-0.001 ± 0.066
13,E51Y,-0.172 ± 0.15
14,E51H,0.097 ± 0.1
15,C61Q,-0.08 ± 0.099
16,C61K,0.005 ± 0.12
17,C61W,-0.171 ± 0.12
18,C61Y,0.073 ± 0.17
19,C61R,0.042 ± 0.072
20,C61T,0.248 ± 0.098
21,C61N,-0.675 ± 0.33
22,K48N,0.222 ± 0.19
23,K48P,-0.159 ± 0.19
24,K48V,-0.261 ± 0.12

row,Variant,abundance fitness
1,K48W,-0.119 ± 0.092
2,W62K,-0.339 ± 0.17
3,W62L,-0.391 ± 0.096
4,W62H,-0.838 ± 0.31
5,W62S,-0.551 ± 0.12
6,W62Y,-0.296 ± 0.42
7,W62M,-0.425 ± 0.14
8,W62P,-0.17 ± 0.12
9,W62R,-0.574 ± 0.11
10,G14V,-0.139 ± 0.082
11,G14I,-0.418 ± 0.2
12,G14S,-0.043 ± 0.081
13,C67H,-0.28 ± 0.22
14,C67K,-0.667 ± 0.24
15,C67G,-0.992 ± 0.18
16,C67R,-1.26 ± 0.43
17,C67L,-1.03 ± 0.32
18,C67Y,-1.08 ± 0.29
19,N55Q,-0.189 ± 0.22
20,N55D,-0.031 ± 0.35
21,N55A,-0.089 ± 0.13
22,N55H,0.049 ± 0.22
23,N55L,-0.188 ± 0.085
